Measurements from PMC9982069 (PNAS Nexus, 2023).

B1: batCOV5-M, M protein of Pipistrellus bat coronavirus HKU5, affinity- and SEC-purified (cross-linking, MST) (natural protein)
chain: MASSNVTLSNDEVLRLVKDWNFTWSVVFLLITIVLQYGYPSRSMFVYVIKMFVLWLLWPASMALSIFCAVYPIDLASQIISGILAATSCAMWISYFVQSIRLFMRTGSWWSFNPESNCLLNVPIGGTTVVRPLVEDSTSVTAVVTDGYLKMAGMHFGACDFQRLPSEVTVAKPNVLIALKMIKRQAYGTNSGVAIYHRYKAGNYRRPPIIQDQELALLRA
B2: batCOV5-MCTD-sfGFP, carboxy-terminal domain of batCOV5-M between the two halves of a split superfold (domain or fragment)
chain: ESNCLLNVPIGGTTVVRPLVEDSTSVTAVVTDGYLKMAGMHFGACDFQRLPSEVTVAKPNVLIALKMIKRQAYGTNSGVAIYHRYKAGN

Columns and labels:
[1] = target: the molecule itself; test: cross-linking
[2] = target: the molecule itself; test: crystal structure

| Protein | stoichiometry N [1] | stoichiometry N [2] |
| --- | --- | --- |
| B1 | ≥ 2 | – |
| B2 | – | 4 |
